# Reference: patent EP4534554A1 (Corregene Biotechnology Co., Ltd., dated 2025)
# T1: MAGE-A1 peptide on HLA-A*02:01 (human)
# T1 peptide: KVLEYVIKV
# What was measured:
# [1] = molecular target: MAGE-A1 target antigen peptide … presented by HLA-A*02:01 on cells (human); assay: cell-based or functional assay; parameters: EC50 Enhancement Factor: unit not given beside the values
# [2] = molecular target: T1, MAGE-A1 peptide on HLA-A*02:01; assay: JKR9 reporter + peptide-loaded T2, 16 h; full-length, on cells
EC50 Enhancement Factor [1],"EC50 Value (M), JKR9 reporter activation by peptide-loaded T2 cells [1] [M]",EC50 of peptide [2] [nM],Binder
944,1.76e-08,17.6,"ht27M1004 (TCR, V domains shown) Valpha: GEDVEQSLFLSVREGDSSVINCTYTDSSSTYLYWYKQEPGAGLQLLTYIFSNMDMKQDQRLTVLLNKKDKHLSLRIADTQTGDSAIYFCAGSGGGTDKLIFGTGTRLQVFP Vbeta: GAVVSQHPSWVICKSGTSVKIECRSLDFQATTMFWYRQFPKQSLMLMATSNEGSKATYEQGVEKDKFLINHASLTLSTLTVTSAHPEDSSFYICSAREPGQGPFEQYFGPGTRLTVT"
28,5.88e-07,588,"ht27M1226 (TCR, V domains shown) Valpha: GEDVEQSLFLSVREGDSSVINCTYTDSLSTYLYWYKQEPGAGLQLLTYIFSNMDMKQDQRLTVLLNKKDKHLSLRIADTQTGDSAIYFCAGSGGGTDKLIFGTGTRLQVFP Vbeta: GAVVSQHPSWVICKSGTSVKIECRSLDFQATTMFWYRQFPKQSLMLMATSNEGSKATYEQGVEKDKFLINHASLTLSTLTVTSAHPEDSSFYICSAREPGQGPYEQYFGPGTRLTVT"
56,2.98e-07,298,"ht27M1243 (TCR, V domains shown) Valpha: GEDVEQSLFLSVREGDSSVINCTYTDSSLTYLYWYKQEPGAGLQLLTYIFSNMDMKQDQRLTVLLNKKDKHLSLRIADTQTGDSAIYFCAGSGGGTDKLIFGTGTRLQVFP Vbeta: GAVVSQHPSWVICKSGTSVKIECRSLDFQATTMFWYRQFPKQSLMLMATSNEGSKATYEQGVEKDKFLINHASLTLSTLTVTSAHPEDSSFYICSAREPGQGPYEQYFGPGTRLTVT"
39,4.25e-07,425,"ht27M1170 (TCR, V domains shown) Valpha: GEDVEQSLFLSVREGDSSVINCTYTDSSSTYLYWYKQEPGAGLQLLTYIFSNMDMKQDQRLTVLLNKKDKHLSLRIADTQTGDSAIYFCAGSGGGTDKLIFGTGTRLQVFP Vbeta: GAVVSQHPSWVICKSGTSVKIECRSLDFQATTMFWYRQFPKQSLMLMATSNEGSKATYEQGVEKDKFLINHASLTLSTLTVTSAHPEDSSFYICHAREPGQGPYEQYFGPGTRLTVT"
637,2.61e-08,26.1,"ht27M1012 (TCR, V domains shown) Valpha: GEDVEQSLFLSVREGDSSVINCTYTDSSSTYLYWYKQEPGAGLQLLTYIFSNMDMKQDQRLTVLLNKKDKHLSLRIADTQTGDSAIYFCAGSGGGTDKLIFGTGTRLQVFP Vbeta: GAVVSQHPSWVICKSGTSVKIECRSLDFQATTMFWYRQFPKQSLMLMATSNEGSKATYEQGVEKDKFLINHASLTLSTLTVTSAHPEDSSFYICSAREPGGGPFEQYFGPGTRLTVT"
445,3.74e-08,37.4,"ht27M1006 (TCR, V domains shown) Valpha: GEDVEQSLFLSVREGDSSVINCTYTDSSSTYLYWYKQEPGAGLQLLTYIFSNMDMKQDQRLTVLLNKKDKHLSLRIADTQTGDSAIYFCAGSGGGTDKLIFGTGTRLQVFP Vbeta: GAVVSQHPSWVICKSGTSVKIECRSLDFQATTMFWYRQFPKQSLMLMATSNEGSKATYEQGVEKDKFLINHASLTLSTLTVTSAHPEDSSFYICSAREPGQGPWEQYFGPGTRLTVT"
841,1.98e-08,19.8,"ht27M1013 (TCR, V domains shown) Valpha: GEDVEQSLFLSVREGDSSVINCTYTDSSSTYLYWYKQEPGAGLQLLTYIFSNMDMKQDQRLTVLLNKKDKHLSLRIADTQTGDSAIYFCAGSGGGTDKLIFGTGTRLQVFP Vbeta: GAVVSQHPSWVICKSGTSVKIECRSLDFQATTMFWYRQFPKQSLMLMATSNEGSKATYEQGVEKDKFLINHASLTLSTLTVTSAHPEDSSFYICSAREPGSGPFEQYFGPGTRLTVT"
2020,8.24e-09,8.24,"ht27M1011 (TCR, V domains shown) Valpha: GEDVEQSLFLSVREGDSSVINCTYTDSSSTYLYWYKQEPGAGLQLLTYIFSNMDMKQDQRLTVLLNKKDKHLSLRIADTQTGDSAIYFCAGSGGGTDKLIFGTGTRLQVFP Vbeta: GAVVSQHPSWVICKSGTSVKIECRSLDFQATTMFWYRQFPKQSLMLMATSDYQTCVTYEQGVEKDKFLINHASLTLSTLTVTSAHPEDSSFYICSAREPGQGPWEQYFGPGTRLTVT"
820,2.03e-08,20.3,"ht27M1010 (TCR, V domains shown) Valpha: GEDVEQSLFLSVREGDSSVINCTYTDSSSTYLYWYKQEPGAGLQLLTYIFSNMDMKQDQRLTVLLNKKDKHLSLRIADTQTGDSAIYFCAGSGGGTDKLIFGTGTRLQVFP Vbeta: GAVVSQHPSWVICKSGTSVKIECRSLDFQATTMFWYRQFPKQSLMLMATSDYQTCVTYEQGVEKDKFLINHASLTLSTLTVTSAHPEDSSFYICSAREPGQGPLEQYFGPGTRLTVT"
262,6.36e-08,63.6,"ht27M1018 (TCR, V domains shown) Valpha: GEDVEQSLFLSVREGDSSVINCTYTDSSSTYLYWYKQEPGAGLQLLTYIFSNMDMKQDQRLTVLLNKKDKHLSLRIADTQTGDSAIYFCAGSGGGTDKLIFGTGTRLQVFP Vbeta: GAVVSQHPSWVICKSGTSVKIECRSLDFQATTMFWYRQFPKQSLMLMATSDYQTCVTYEQGVEKDKFLINHASLTLSTLTVTSAHPEDSSFYICSAREPGGGPFEQYFGPGTRLTVT"
422,3.95e-08,39.5,"ht27M1128 (TCR, V domains shown) Valpha: GEDVEQSLFLSVREGDSSVINCTYTDSSSTYLYWYKQEPGAGLQLLTYIFSNMDMKQDQRLTVLLNKKDKHLSLRIADTQTGDSAIYFCAGSGGGTDKLIFGTGTRLQVFP Vbeta: GAVVSQHPSWVICKSGTSVKIECRSLDFQATTMFWYRQFPKQSLMLMATSNEGSKATYEQGVEKDKFLINHASLTLSTLTVTSAHPEDSSFYICLAREPGQGPYEQYFGPGTRLTVT"
11,1.55e-06,1550,"ht27M1005 (TCR, V domains shown) Valpha: GEDVEQSLFLSVREGDSSVINCTYTDSSSTYLYWYKQEPGAGLQLLTYIFSNMDMKQDQRLTVLLNKKDKHLSLRIADTQTGDSAIYFCAGSGGGTDKLIFGTGTRLQVFP Vbeta: GAVVSQHPSWVICKSGTSVKIECRSLDFQATTMFWYRQFPKQSLMLMATSNEGSKATYEQGVEKDKFLINHASLTLSTLTVTSAHPEDSSFYICSAREPGQGPLEQYFGPGTRLTVT"
30,5.54e-07,554,"ht27M1245 (TCR, V domains shown) Valpha: GEDVEQSLFLSVREGDSSVINCTYTDSSQTYLYWYKQEPGAGLQLLTYIFSNMDMKQDQRLTVLLNKKDKHLSLRIADTQTGDSAIYFCAGSGGGTDKLIFGTGTRLQVFP Vbeta: GAVVSQHPSWVICKSGTSVKIECRSLDFQATTMFWYRQFPKQSLMLMATSNEGSKATYEQGVEKDKFLINHASLTLSTLTVTSAHPEDSSFYICSAREPGQGPYEQYFGPGTRLTVT"
751,2.21e-08,22.1,"ht27M1019 (TCR, V domains shown) Valpha: GEDVEQSLFLSVREGDSSVINCTYTDSSSTYLYWYKQEPGAGLQLLTYIFSNMDMKQDQRLTVLLNKKDKHLSLRIADTQTGDSAIYFCAGSGGGTDKLIFGTGTRLQVFP Vbeta: GAVVSQHPSWVICKSGTSVKIECRSLDFQATTMFWYRQFPKQSLMLMATSDYQTCVTYEQGVEKDKFLINHASLTLSTLTVTSAHPEDSSFYICSAREPGSGPFEQYFGPGTRLTVT"
388,4.28e-08,42.8,"ht27M1001 (TCR, V domains shown) Valpha: GEDVEQSLFLSVREGDSSVINCTYTDSSSTYLYWYKQEPGAGLQLLTYIFSNMDMKQDQRLTVLLNKKDKHLSLRIADTQTGDSAIYFCAGSGGGTDKLIFGTGTRLQVFP Vbeta: GAVVSQHPSWVICKSGTSVKIECRSLDFQATTMFWYRQFPKQSLMLMATSDYQTCVTYEQGVEKDKFLINHASLTLSTLTVTSAHPEDSSFYICSAREPGQGPYEQYFGPGTRLTVT"
151,1.1e-07,110,"ht27M1240 (TCR, V domains shown) Valpha: GEDVEQSLFLSVREGDSSVINCTYTDSSMTYLYWYKQEPGAGLQLLTYIFSNMDMKQDQRLTVLLNKKDKHLSLRIADTQTGDSAIYFCAGSGGGTDKLIFGTGTRLQVFP Vbeta: GAVVSQHPSWVICKSGTSVKIECRSLDFQATTMFWYRQFPKQSLMLMATSNEGSKATYEQGVEKDKFLINHASLTLSTLTVTSAHPEDSSFYICSAREPGQGPYEQYFGPGTRLTVT"
2720,6.12e-09,6.12,"ht27M1009 (TCR, V domains shown) Valpha: GEDVEQSLFLSVREGDSSVINCTYTDSSSTYLYWYKQEPGAGLQLLTYIFSNMDMKQDQRLTVLLNKKDKHLSLRIADTQTGDSAIYFCAGSGGGTDKLIFGTGTRLQVFP Vbeta: GAVVSQHPSWVICKSGTSVKIECRSLDFQATTMFWYRQFPKQSLMLMATSDYQTCVTYEQGVEKDKFLINHASLTLSTLTVTSAHPEDSSFYICSAREPGQGPFEQYFGPGTRLTVT"
47,3.55e-07,355,"ht27M1166 (TCR, V domains shown) Valpha: GEDVEQSLFLSVREGDSSVINCTYTDSSSTYLYWYKQEPGAGLQLLTYIFSNMDMKQDQRLTVLLNKKDKHLSLRIADTQTGDSAIYFCAGSGGGTDKLIFGTGTRLQVFP Vbeta: GAVVSQHPSWVICKSGTSVKIECRSLDFQATTMFWYRQFPKQSLMLMATSNEGSKATYEQGVEKDKFLINHASLTLSTLTVTSAHPEDSSFYICQAREPGQGPYEQYFGPGTRLTVT"
